Data published in doi:10.1101/391136.

Key:
S100A1 [1] = experiment: ITC
S100A1 [2] = experiment: other fluorescence titration

S100A4 (from UniProt P26447 4-101) (natural protein)
Kd (S100A1 [1]): 6.37 µM | stoichiometry N (S100A1 [1]): 1 | Kd (S100A1 [2]): 10 µM
